# According to the RNAGym collection of RNA variant scans (doi:10.1073/pnas.2313332121):
# This sample holds only a part of the variants without activity.
# B1: TPR 5TU (parent)
# chain: GGAUCUUCUCGAUCUAACAAAAAAGACAAAUCUGCCACAAAGCUUGAGAGCAUCUUCGGAUGCAGAGGCGGCAGCCUUCGGUGGCGCGAUAGCGCCAACGUUCUCAACUAUGACACGCAAAACGCGUGCUCCGUUGAAUGGAGUUUAUCAUG
# Variants of: B1
# Test: polymerase ribozyme fitness, log enrichment relative to wild type (log ratio); higher = more active; in vitro selection for triplet polymerase activity
# Summary of the method: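 A single round of triplicate in vitro selection, including frozen incubation at −7 °C, was applied to PCR-built, transcribed mutant libraries of each subunit of a heterodimeric triplet polymerase ribozyme. Illumina sequencing of input and output libraries retained genotypes with ≥10 input reads and ≥1 read per output. Fitness is the base-2 logarithm of genotype enrichment divided by wild-type enrichment, from inverse-variance-weighted replicate averages.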
row,Variant,polymerase ribozyme fitness (log ratio)
1,A49G G84A G152A,-2.8
2,G48C C54A C108G C114U C125U U134A C149G,≤ -4.2
3,G48U U55A C96G A115U,-4.16
4,G48A U135A,-0.864
5,G48U G94A U151C,≤ -4.2
6,G48U C57G C93U G136A U146G,-2.43
7,A49U A97U A106G C116U,-2.93
8,G48A G83U U134C,-1.42
9,A49G G50A C54A A66G U82A C108U C125A,≤ -4.2
10,G48C A91G C105U A147G,≤ -4.2
11,G48C G50A U55A,-3.03
12,G48A G86U C95U C123A,-2.89
13,A49C U55A,≤ -4.2
14,G48C A60G C76G G94C U104C C131U,≤ -4.2
15,G48U G50C C85G A98U C99U C149U,≤ -4.2
16,G48C G94U C103U G140A,≤ -4.2
17,A49U A73U C75A,≤ -4.2
18,A49G C75U C96G,-2.68
19,A49C G70A C75G C93G A97C C116G C118G,≤ -4.2
20,A49G U56G G83C,-2.85
21,A49G C93A U134A U146G,≤ -4.2
22,G48C C85A A142U,≤ -4.2
23,A49C G62C U139C,≤ -4.2
24,A49U G58C A66G G80U C85A C87A C108G G128U C149U,≤ -4.2

row,Variant,polymerase ribozyme fitness (log ratio)
1,A49C G74C C87A C125U,≤ -4.2
2,G48A U61A G71A C85G A107U G124U G141U,≤ -4.2
3,A49C G141C,-4.14
4,A49C G141A,-3.79
5,G48U C96A,-0.685
6,G48U C96G,-1.13
7,A49C U53A C54A C87U U102C,≤ -4.2
8,G48C G84A A121G U134A G143A,-3.91
9,A49G A106G,-1.08
10,G48U G59A C93U,-1.39
11,G48C G126U,-0.372
12,A49C A52C A91U U130A U134A U135C A142G,≤ -4.2
13,A49C A91U C95A A107U,≤ -4.2
14,A49C G50U G71C G94C G136A U144C,≤ -4.2
15,A49C G50C A91U C96G,≤ -4.2
16,A49U C57A G81A A98C U148G,≤ -4.2
17,A49G G59C G67A G70A U77C U82C A89G C95G,≤ -4.2
18,A49C G67A G92U A138C,≤ -4.2
19,A49U A89U C132U,-2.65
20,A49U C54G C72A U82G A110U,≤ -4.2
21,A49G G133C,-2.21
22,A49G G50U C51U C96U A98C G126A U134G U146A,-3.95
23,G48U A106G,-1.48
24,A49C C99G,≤ -4.2

row,Variant,polymerase ribozyme fitness (log ratio)
1,G48A G62A C96A C132G U134G A147C,≤ -4.2
2,G48C C69A C149U,-2.77
3,A49C A119U,≤ -4.2
4,A49C A52C C96A U102G U127C U148A,≤ -4.2
5,A49C G50C G81C A110U,≤ -4.2
6,A49G G74C U101G G112C A122U U127A A138C,≤ -4.2
7,A49U G62C C123U,-2.38
8,G48C,0.0216
9,G48U,0.247
10,A49U A91G,≤ -4.2
11,A49C G50C C76U A91U A97U U111C G143C A150U,≤ -4.2
12,G48A G88A C105G A115U,-3.86
13,G48A G80C G94A C96U C99G,-3.97
14,G48A G83U A98G G140C,≤ -4.2
15,G48A U55G A142C,-2.84
16,G48C A110C G141U U148G,≤ -4.2
17,A49C C79A C108U C123A,≤ -4.2
18,A49C C75A G81C C93G A106C U109A G136A,≤ -4.2
19,G48C C85A A120G,-2.75
20,G48C C93G,-3.04
21,G48U U53A C85U,-1.94
22,G48U A49C C69G G86A C93U U139G A150G,≤ -4.2
23,A49G G71A C93G,≤ -4.2
24,A49G U55A,-0.644

row,Variant,polymerase ribozyme fitness (log ratio)
1,G48C G50U G92C U145G,-4.11
2,G48C A49C A122U,-3.93
3,A49C U56G G65U A73C C87A,≤ -4.2
4,A49C G86A C129A C132U U148A G152U,≤ -4.2
5,G48U C85U G140U,≤ -4.2
6,A49C C75U C76A U77G G81U C87U C93U G94A C131G U134G,≤ -4.2
7,G48U U82G C96G,-1.48
8,A49C G59A A60G A106G,≤ -4.2
9,A49C U101G G141U,-1.78
10,A49C C87A C132A,≤ -4.2
11,A49U G88A,≤ -4.2
12,A49C C54U,≤ -4.2
13,A49U C57G U61A A73G G88C A97C U135A G152A,≤ -4.2
14,A49U C54U,-1.34
15,G48U U55A C99U,-2.23
16,G48U C149G,≤ -4.2
17,A49G A142C,-1.59
18,G48A G84A A107C C118G,≤ -4.2
19,G48A U61A C105G,≤ -4.2
20,A49G U139A,-4.08
21,A49C G86U C96G C123U U146G,≤ -4.2
22,G48U C116U,-0.65
23,A49C A52U G84A C105U G124U,≤ -4.2
24,A49G G126U,-0.157

row,Variant,polymerase ribozyme fitness (log ratio)
1,A49G G58A,-0.296
2,A49C G84C U90G C103G A115U,≤ -4.2
3,G48C U82G G128C U135A,-3.96
4,G48U G65A C95U C105U C129G C132U,≤ -4.2
5,A49C G68C G94U A97U C114G G126A U127G,≤ -4.2
6,A49U A60C,-3.47
7,A49C A73G A91G C108U A119C C125A,≤ -4.2
8,A49G C63U G81C U104G,-2.29
9,A49C A52G C72A,≤ -4.2
10,A49U U56A C99G A147G,≤ -4.2
11,G48U C93G,-3.47
12,A49G A91G,-4.05
13,G48C U55A C103G,-0.533
14,A49G C87A A89C U90A C129U,≤ -4.2
15,A49U C85G,-2.96
16,A49C G88U C96G A115U U148G,≤ -4.2
17,A49G A60G C85U,-0.602
18,G48A G88A U134C U144G,≤ -4.2
19,A49C C85U,-3.49
20,A49U G80A,-3.76
21,G48C G70A G88U C96G,≤ -4.2
22,A49U A107C,≤ -4.2
23,A49C C57U,-3.72
24,A49U G141A A147G,≤ -4.2

row,Variant,polymerase ribozyme fitness (log ratio)
1,A49G U101C C114G U134C,-3.89
2,G48C G94U C96U C118G A122U,-3.42
3,A49G G92C A115U,-3.24
4,A49C G50C G67C C72G G84A C108A A142G A147U,≤ -4.2
5,A49C U53A G81C A98U G100A C103A,≤ -4.2
6,A49C U61G G62A G81C,-4.13
7,A49C C95U C96G,-3.85
8,A49G G83A U144G A147U,-1.87
9,A49C C51A C99U C132G,≤ -4.2
10,A49C G50C U53A C79A A137U,≤ -4.2
11,A49C C96A,-3.04
12,A49C G68C C85G A115G A119G G141U A147C,≤ -4.2
13,G48C G141U,-1.8
14,G48C G141A,-3.64
15,A49C C79U C85U C132A U134A,≤ -4.2
16,G48C C76A U90G U130G,≤ -4.2
17,A49G C51G,-2.66
18,A49G C51U C95G A137G U144A,≤ -4.2
19,A49C C54U G86C G88C A138U,≤ -4.2
20,A49C G62A G94C A122U C132G A142C,≤ -4.2
21,G48C G50U G59U U82A G92C,-3.41
22,A49G C114U U144A,-4.06
23,G48C G143U,-2.25
24,A49C C103A,-3.96

row,Variant,polymerase ribozyme fitness (log ratio)
1,G48C G84C C85A A110U C125A,≤ -4.2
2,A49C C51U A73G,≤ -4.2
3,G48C C76U,-3.15
4,A49U C103G,≤ -4.2
5,G48C G70A C75G C87G C93G G140A G152A,-4.11
6,A49C G65C G88U C96A,-4.03
7,A49G C125G,-0.947
8,A49G G50A U53A U77G C79U G92U U109G A122U U134C U135C C149A A150U,≤ -4.2
9,A49C G84C,≤ -4.2
10,A49C C69A C79U G83U G94U U104A,≤ -4.2
11,A49C G59U U77C G81C U109G G141C,≤ -4.2
12,A49C U77G G94C,≤ -4.2
13,A49C,-4.19
14,A49G,-0.331
15,A49U,-0.673
16,A49G G92U,0.21
17,A49C G68A,≤ -4.2
18,G48C A49C A60G U61A A66G C87A,≤ -4.2
19,A49C A52C U56C C87G C95U A98G A107C A119G,-4.17
20,G48C A113C U148C,≤ -4.2
21,A49G G50A C95U U145C,-2.54
22,A49G A52C,-1.27
23,A49G A113U,-2.42
